Experimental data: publication PMC3229523, “Identification of Lactoferricin B Intracellular Targets Using an Escherichia coli Proteome Chip” (PLoS ONE, 2011)
Ends that are not written are not given here. * marks the point of attachment. Biotin = O=C1N[C@H]2[C@H](CS[C@H]2CCCCC(=O)*)N1

What was measured:
Test in all cases: peptide or protein array; E. coli proteome chip: purified His-tagged proteins printed in duplicate on Fullmoon slides, blocked with 1% BSA; 10 nM N-terminal biotinylated LfcinB with 1% BSA, room temperature, 1 h; detected with DyLight 649-labeled streptavidin, ratio to DyLight 549-labeled anti-His antibody; ProCAT normalisation, local cut-off; triplicate chips
Settings in all cases: both partners purified
RplW = RplW (E. coli K-12, UniProt P0ADZ0 1-100)
YhiF = target: T1, YhiF (E. coli K-12, UniProt P37195 1-176)
T1 construct: YhiF, E. coli K-12
T1 sequence (looked up): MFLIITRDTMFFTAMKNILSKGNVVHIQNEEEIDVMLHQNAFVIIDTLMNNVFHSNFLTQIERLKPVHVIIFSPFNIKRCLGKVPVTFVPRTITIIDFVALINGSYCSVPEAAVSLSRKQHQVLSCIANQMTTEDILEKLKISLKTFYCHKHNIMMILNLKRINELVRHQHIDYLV

YqhC = target: T2, YqhC (E. coli K-12, UniProt Q46855 1-318)
T2 construct: YqhC, E. coli K-12
T2 sequence (looked up): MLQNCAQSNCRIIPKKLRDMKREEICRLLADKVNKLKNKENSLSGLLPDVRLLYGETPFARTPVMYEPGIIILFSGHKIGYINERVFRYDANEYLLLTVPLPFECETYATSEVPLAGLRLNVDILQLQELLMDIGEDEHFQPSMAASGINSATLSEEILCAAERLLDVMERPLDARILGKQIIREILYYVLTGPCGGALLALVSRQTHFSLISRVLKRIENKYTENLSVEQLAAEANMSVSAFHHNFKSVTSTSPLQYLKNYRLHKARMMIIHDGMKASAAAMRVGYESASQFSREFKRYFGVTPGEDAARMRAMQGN

FlgC = target: T3, FlgC (E. coli K-12, UniProt P0ABX2 1-134)
T3 construct: FlgC, E. coli K-12
T3 sequence (looked up): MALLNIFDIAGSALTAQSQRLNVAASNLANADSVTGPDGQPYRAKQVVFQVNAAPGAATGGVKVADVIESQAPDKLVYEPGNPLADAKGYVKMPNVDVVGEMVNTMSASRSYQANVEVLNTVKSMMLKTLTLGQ

RfaD = target: T4, RfaD (E. coli K-12, UniProt P67910 1-310)
T4 construct: RfaD, E. coli K-12
T4 sequence (looked up): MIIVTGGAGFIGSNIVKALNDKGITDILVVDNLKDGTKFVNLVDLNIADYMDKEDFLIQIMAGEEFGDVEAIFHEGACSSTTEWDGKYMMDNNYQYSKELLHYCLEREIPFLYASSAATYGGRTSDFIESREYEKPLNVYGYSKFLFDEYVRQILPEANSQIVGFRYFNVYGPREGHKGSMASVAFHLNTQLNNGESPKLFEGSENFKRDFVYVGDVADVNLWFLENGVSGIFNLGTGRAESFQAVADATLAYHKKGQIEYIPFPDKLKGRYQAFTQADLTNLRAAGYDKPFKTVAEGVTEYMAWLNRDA

GldA = target: T5, GldA (E. coli K-12, UniProt P0A9S5 1-367)
T5 construct: GldA, E. coli K-12
T5 sequence (looked up): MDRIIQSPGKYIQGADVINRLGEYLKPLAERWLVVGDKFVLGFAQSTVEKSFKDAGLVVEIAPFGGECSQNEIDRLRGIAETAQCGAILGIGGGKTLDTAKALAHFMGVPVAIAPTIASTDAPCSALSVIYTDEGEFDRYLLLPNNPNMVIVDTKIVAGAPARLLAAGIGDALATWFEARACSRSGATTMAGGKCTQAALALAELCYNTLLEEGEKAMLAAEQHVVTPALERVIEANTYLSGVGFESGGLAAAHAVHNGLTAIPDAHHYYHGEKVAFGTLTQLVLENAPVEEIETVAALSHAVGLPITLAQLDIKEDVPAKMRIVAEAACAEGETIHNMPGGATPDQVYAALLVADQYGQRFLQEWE

Measured: binding result

B1: N-terminal biotinylated Lactoferricin B (peptide, UniProt P24627 36-60, looked up)
peptide: Biotin-FKCRRWQWRMKKLGAPSITCVRRAF
modifications: ends and bridges not checked
notes: lactoferricin B (LfcinB), cationic antimicrobial peptide of 25 amino acids; also called biotinylated LfcinB; biotin-labeled LfcinB; source: bought: Kelowna Inc
binds: all assays above
